Experimental data as given in patent US20250043319A1, “BIOSYNTHESIS OF CYCLOLAVANDULYL DERIVATIVES OF AROMATIC COMPOUNDS” (Invizyne Technologies, Inc., priority 2022, published 2025).

B1: MzPT1: prenyltransferase, Accession: WP_135330628.1, SEQ ID NO: 18 (protein, listed as Streptomyces sp.)
chain: MSRTAEVERVYSAIEEAAGLLSAVCSRDNVWPVLDAFGDELAEAMIVFGGQAGDRHAGELDYSFTVPSSIGNPYPHALSRGLVTETDHPVGSVLSDIQGRWPIKEHFVDAGVVGGFKKLYAHFPDNMQKVSDIADIPSMPRAVAENAALFARYGLDQVAMIGVDYRHKTVSVYFHFGPDGRPEPSTIRALLSDLGMPEPDEPTLEFAHKSLRVNITLGWETGDVIRVAFAPPPVRGLDPSALPGQLTPRMEEFARVSPRAYAGGRVNMYAVKWMRGEEFHEVCTYYQLTPWYEKILTDAPKEQQG
B2: NapT9: prenyltransferase, Accession: ABS50490.1, SEQ ID NO: 14 (protein, listed as Streptomyces sp.)
chain: MSGATGAEKLYSAIEESARMVDAPFSRDKVWPTLSAFEGGFSDAGGVILSLQAGTHVPEMEYSAQVSPGISDPYARALASGILTETDHPVSTVLAEIVSLAPTSEHYIDCGIVGGFKKIYANFPHDQQTVAALAGLPSMPRAVGGNAEFFARHGLDRVALIGVDYVNKTINLYFQVSAATAGNLDQKTVSAMLHETGMSEPSDAMVAYACQAYRIYTTLSWDAQEILRIAFAPKPRRGIDPADLPARLEPRIEKFLRATPHKYPGALINATAAKWSPEREVLDLAAHYQVSAVQMKAIEAEEGQAS
B3: AbPT: prenyltransferase, Accession: KPI30840.1, SEQ ID NO: 9 (protein, listed as Actinomyces sp.)
chain: MSGKANIQRVYSAVEEAADLLDIACSREQMWPTLTAFEDVLTDGAIVFNMVTSGGRIGDLSFDFTLPPSAGDPYELALAHGLVDETDHPVRALFSDIQARFPLQAYGVDHGITSGFHKTYAFFPLGDLQSVAELADIPSMPSGLSEHVTSFAAYGLDDKVSAIAIDYARRTWNVYFNGLSAPHVQRTAVLSMLSEFGLPEPSAQLLEFIETSSALYPTFGWDSSKIERISFSTRTTDPVALPARIEPKLEKFARSAPHVYEGERVLVYAGALSPSEEYYKLATYYQMTAAAHDRVRSAN
B4: MzPT2: prenyltransferase, Accession: WP_135330626.1, SEQ ID NO: 19 (protein, listed as Streptomyces sp.)
chain: MSGTAVEKLYSAIEETAGLLDVTCSRDKVWPVLASFEDAIPQAAILFRVATDKRHAGELNLHFMMLPGDVDPYALALSNDLMAKTEHPVGSLLSDIAERFPVESYGIDFGVVKGFQKTWSCFPGNSMQSLSKLAEVPSVPSSLAGNLDFFSRYGLDENVTLVGIDFEHRTMNVYFGEVAELLEPDAVKSMLRDLEMPEPSEQLLNFAKQSFGFYATLSWDSPRIERFCYAAIAPDPMALLDQVEPKIEHFLKTVPYGVDDPKAVYAATSPNDGEFYKIQSYYQWRPRLVNHMHTSVSDSGE
B5: NphB: naturally occurring prenyltransferase from Streptomyces sp. CL190, Accession: 1ZB6_A, SEQ ID NO: 8 (protein, listed as Streptomyces sp.)
chain: MSEAADVERVYAAMEEAAGLLGVACARDKIYPLLSTFQDTLVEGGSVVVFSMASGRHSTELDFSISVPTSHGDPYATVVEKGLFPATGHPVDDLLADTQKHLPVSMFAIDGEVTGGFKKTYAFFPTDNMPGVAELSAIPSMPPAVAENAELFARYGLDKVQMTSMDYKKRQVNLYFSELSAQTLEAESVLALVRELGLHVPNELGLKFCKRSFSVYPTLNWETGKIDRLCFAVISNDPTLVPSSDEGDIEKFHNYATKAPYAYVGEKRTLVYGLTLSPKEEYYKLGAYYHITDVQRGLLKAFDSLED
B6: AtaWTPT: prenyltransferase, Accession: AMB20850.1, SEQ ID NO: 17 (protein, listed as Aspergillus terreus)
chain: MLPPSDSKDPRPWQILSQALGFPNYDQELWWQNTAETLNRVLEQCDYSVHLQYKYLAFYHKYILPSLGPFRRPGVEPEYISGLSHGGHPLEISVKIDKSKTICRLGLQAIGPLAGTARDPLNSFGDRELLKNLATLLPHVDLRLFDHFNAQVGLDRAQCAVATTKLIKESHNIVCTSLDLKDGEVIPKVYFSTIPKGLVTETPLFDLTFAAIEQMEVYHKDAPLRTALSSLKDFLRPRVPTDASITPPLTGLIGVDCIDPMLSRLKVYLATFRMDLSLIRDYWTLGGLLTDAGTMKGLEMVETLAKTLKLGDEACETLDAERLPFGINYAMKPGTAELAPPQIYFPLLGINDGFIADALVEFFQYMGWEDQANRYKDELKAKFPNVDISQTKNVHRWLGVAYSETKGPSMNIYYDVVAGNVARV

How the values were obtained:
Format in all cases: biochemical
[1] = cell-free cyclolavandulylation activity screening of prenyltransferases, substrate naringenin; settings: cell-free reaction with CLDS and DMAPP (CLPP donor), 28° C., 48 hours, QTOF LC/MS, with vs without prenyltransferase
From the text: (§1) Genes encoding the following prenyltransferases were codon-optimized, synthesized, and cloned into the pET28a vector for protein expression and isolation/purification as described in Example 1. • NphB (Accession: 1ZB6_A) (SEQ ID NO: 8) • AbPT (Accession: KPI30840.1) (SEQ ID NO: 9) • SkPT (Accession: Q2L6E3.1) (SEQ ID NO: 10) • SvPT (Accession: WP_078899560.1) (SEQ ID NO: 11) • Sr1310PT (Accession: WP_057602682.1) (SEQ ID NO: 12) • NapT8 (Accession: ABS50461.1) (SEQ ID NO: 13) • NapT9 (Accession: ABS50490.1) (SEQ ID NO: 14) • Mcl23PT (Accession: AGH68908.1) (SEQ ID NO: 15) • CnqP3PT (Accession: WP_047018069.1) (SEQ ID NO: 16) • AtaWTPT (Accession: AMB20850.1) (SEQ ID NO: 17) • MzPT1 (Accession: WP_135330628.1) (SEQ ID NO: 18) • MzPT2 (Accession: WP_135330626.1) (SEQ ID NO: 19) B. Cell-Free Biosynthesis Reaction with CLPP and Various Aromatic Substrates
(§2) The cyclolavandulyl diphosphate synthase, CLDS was prepared as described in Example 1 and used in the synthesis of CLPP.
(§3) Stocks of the various aromatic compounds used as substrates for cyclolavandulylation activity screening were obtained from the following commercial sources: • Resveratrol (Fisher Scientific) 200 mM stock in DMSO • Luteolin (Fisher Scientific) 200 mM stock in DMSO • Naringenin (Fisher Scientific) 200 mM stock in DMSO • Tryptamine (Fisher Scientific) 200 mM stock in DMSO • Tryptophan (Fisher Scientific) 40 mM stock in water • Olivetolic acid (Toronto Research Chemicals) 200 mM stock in DMSO • Divarinic acid (Toronto Research Chemicals) 200 mM stock in DMSO • Phorolic acid (prepared in house) 200 mM stock in DMSO • Olivetol (Fisher Scientific) 200 mM stock in DMSO • Screening for cell-free biosynthesis was carried out as follows. 10 mM DMAPP, 5 mM MgCl2, 100 mM Tris-HCl (pH=8), and 4 mg/mL CLDS (SEQ ID NO: 4) were combined in a 6.80 mL reaction, which was incubated at 28° C. for 48 hours. This mixture was aliquoted into a 96-well plate (80 μL per well). The various prenyltransferases (18 μL, ˜1 g/L final concentration) listed above were screened across various substrates (2 μL of stock solution, variable concentration shown above), which were added to the wells and incubated at 28° C. for an additional 48 hours.
(§4) Analysis of the reaction mixture was carried out as follows: 50 μL of the reaction mixture were added to 1 mL MeOH. The resulting solution was vortexed, centrifuged at 17,200 g for 5 minutes, and transferred to an HPLC vial for analysis. HRMS-QTOF analyses of the cell free reactions was performed on an Agilent Technologies 6545 Accurate Mass QTOF LC/MS with a reverse-phase column (Agilent Infinity Lab Poroshell 120 ECC18, 2.7 μm, 3.0×50 mm) using positive ESI with 1% MeCN—H2O (0.1% FA) for 2 min followed by a linear gradient of 1-99% MeCN—H2O (0.1% FA) for 14 min with a flow rate of 0.4 mL/min.
(§5) Mass spectrometric (MS) analysis of chromatograms was carried out using MassHunter Qualitative Analysis 10.0. Targeted metabolomics using the exact m/z of the calculated proton adduct [H^+] in the presence and absence of prenyltransferase indicated the presence of cyclolavandulylated product.

[2] = cell-free cyclolavandulylation activity screening of prenyltransferases, substrate resveratrol; settings: cell-free reaction with CLDS and DMAPP (CLPP donor), 28° C., 48 hours, QTOF LC/MS, with vs without prenyltransferase
From the text: as §1, §2, §3, §4, §5

[3] = cell-free cyclolavandulylation activity screening of prenyltransferases, substrate tryptamine; settings: cell-free reaction with CLDS and DMAPP (CLPP donor), 28° C., 48 hours, QTOF LC/MS, with vs without prenyltransferase
From the text: as §1, §2, §3, §4, §5

[4] = cell-free cyclolavandulylation activity screening of prenyltransferases, substrate olivetolic acid; settings: cell-free reaction with CLDS and DMAPP (CLPP donor), 28° C., 48 hours, QTOF LC/MS, with vs without prenyltransferase
From the text: as §1, §2, §3, §4, §5

[5] = cell-free cyclolavandulylation activity screening of prenyltransferases, summary over all tested substrates; settings: any of the tested substrates; cell-free biosynthesis reaction with CLDS from Streptomyces sp. CL190 and DMAPP
From the text: as §1, §2, §3, §4, §5

[6] = cell-free cyclolavandulylation activity screening of prenyltransferases, substrate luteolin; settings: cell-free reaction with CLDS and DMAPP (CLPP donor), 28° C., 48 hours, QTOF LC/MS, with vs without prenyltransferase
From the text: as §1, §2, §3, §4, §5

[7] = cell-free cyclolavandulylation activity screening of prenyltransferases, substrate tryptophan; settings: cell-free reaction with CLDS and DMAPP (CLPP donor), 28° C., 48 hours, QTOF LC/MS, with vs without prenyltransferase
From the text: as §1, §2, §3, §4, §5

| Molecule | presence of cyclolavandulylated product, Aromatic Compound (Substrate) Naringenin [1] | presence of cyclolavandulylated product, Aromatic Compound (Substrate) Resveratrol [2] | presence of cyclolavandulylated product, Aromatic Compound (Substrate) Tryptamine [3] | presence of cyclolavandulylated product, Aromatic Compound (Substrate) Olivetolic Acid [4] | cyclolavandulylation activity with tested aromatic compounds (summary of Table 7) [5] | presence of cyclolavandulylated product, Aromatic Compound (Substrate) Luteolin [6] | presence of cyclolavandulylated product, Aromatic Compound (Substrate) Tryptophan [7] |
| --- | --- | --- | --- | --- | --- | --- | --- |
| B1 | No | No | No | Yes | produced a cyclolavandulylated aromatic compound | No | No |
| B2 | No | No | No | No | produced a cyclolavandulylated aromatic compound | Yes | No |
| B3 | No | No | No | No | produced a cyclolavandulylated aromatic compound | No | Yes |
| B4 | No | No | No | No |  | No | No |
| B5 | Yes | No | No | No | produced a cyclolavandulylated aromatic compound | No | Yes |
| B6 | Yes | Yes | No | No | produced a cyclolavandulylated aromatic compound | No | Yes |
